# Substitutions are numbered along the chain they refer to. Where two headings read alike, the source gives them in different places.
# B1: 15H2L3 (antibody, V domains shown)
# VH: EVQLLESGGGLVQPGGSLRLSCAASGFTFNTYAMNWVRQAPGKGLEWVARIRSKYNNYATYYAISVKDRFTISRDNSKNTLYLQMNSLRAEDTAVYYCVKHGNFGNSYLSYWAYWGQGTLVTVSS
# VL: QAVVTQEPSLTVSPGGTVTLTCQSSTGAVTTNNYANWVQQKPGHAFRGLIGGTKQRAPGVPARFSGSLLGGKAALTLSGVQPEDEAEYYCVLWYSNLWVFGGGTKLTVL
# B2: 15H3L3 (antibody, V domains shown)
# VH: B1 VH with N76D, V95M, K100R
# VL: B1 VL
# B3: CD20-TCB (CD3 arm) (antibody)
# chain 1: not shown
# chain 2: QVQLVQSGAEVKKPGSSVKVSCKASGYAFSYSWINWVRQAPGQGLEWMGRIFPGDGDTDYNGKFKGRVTITADKSTSTAYMELSSLRSEDTAVYYCARNVFDGYWLVYWGQGTLVTVSSASTKGPSVFPLAPSSKSTSGGTAALGCLVEDYFPEPVTVSWNSGALTSGVHTFPAVLQSSGLYSLSSVVTVPSSSLGTQTYICNVNHKPSNTKVDEKVEPKSCDKTHTCPPCPAPEAAGGPSVFLFPPKPKDTLMISRTPEVTCVVVDVSHEDPEVKFNWYVDGVEVHNAKTKPREEQYNSTYRVVSVLTVLHQDWLNGKEYKCKVSNKALGAPIEKTISKAKGQPREPQVCTLPPSRDELTKNQVSLSCAVKGFYPSDIAVEWESNGQPENNYKTTPPVLDSDGSFFLVSKLTVDKSRWQQGNVFSCSVMHEALHNHYTQKSLSLSP
# chain 3: EVQLLESGGGLVQPGGSLRLSCAASGFTFSTYAMNWVRQAPGKGLEWVSRIRSKYNNYATYYADSVKGRFTISRDDSKNTLYLQMNSLRAEDTAVYYCVRHGNFGNSYVSWFAYWGQGTLVTVSSASVAAPSVFIFPPSDEQLKSGTASVVCLLNNFYPREAKVQWKVDNALQSGNSQESVTEQDSKDSTYSLSSTLTLSKADYEKHKVYACEVTHQGLSSPVTKSFNRGEC
# chain 4: DIVMTQTPLSLPVTPGEPASISCRSSKSLLHSNGITYLYWYLQKPGQSPQLLIYQMSNLVSGVPDRFSGSGSGTDFTLKISRVEAEDVGVYYCAQNLELPYTFGGGTKVEIKRTVAAPSVFIFPPSDRKLKSGTASVVCLLNNFYPREAKVQWKVDNALQSGNSQESVTEQDSKDSTYSLSSTLTLSKADYEKHKVYACEVTHQGLSSPVTKSFNRGEC
# B4: 19-37 (antibody, V domains shown)
# VH: EVKLLESGGGLVQPKGSLKLSCAASGFTFNTYAMNWVRQAPGKGLEWVARIRSKYNNYATYYAISVKDRFTISRDDSQSILYLQMNNLKTEDTAMYYCVRHGNFGNSYISYWAYWGQGTLVTVSA
# VL: QAVVTQESALTTSPGETVTLTCRSSTGAVTTNNYANWVQEKPDHLFTGLIGGTRLSAPGVPARFSGSLIGDKAALTITGAQTEDEAIYFCVLWYSNLWVFGGGTKLTVL
# B5: 19-15 (antibody, V domains shown)
# VH: B4 VH with I109L
# VL: B4 VL with R23Q, R54K, L55Q, S56R
# B6: CD3-19 (antibody, V domains shown)
# VH: B4 VH with T31S, I64D, I109L
# VL: B4 VL with R23D, N32S, R54Q, L55R
# B7: 15H3L2 (antibody, V domains shown)
# VH: B1 VH with N76D, V95M, K100R
# VL: B1 VL with A2T, H44Q, F46P, G48A, V60T
# B8: 26H3L3 (antibody, V domains shown)
# VH: B1 VH with I64D, N76D, V95M, K100R, L109I, Y111W
# VL: B1 VL with Q23K, N32S, K54N, Q55L, R56H, V91A
# B9: 19-26 (antibody, V domains shown)
# VH: B4 VH with I64D, Y111W
# VL: B4 VL with R23K, N32S, R54N, S56H, V91A
# B10: MBS303-2 (CD3 arm) (antibody, V domains shown)
# VH: B1 VH with N76D, V95M, K100R
# VL: B1 VL
# B11: 15H2L2 (antibody, V domains shown)
# VH: B1 VH
# VL: B1 VL with A2T, H44Q, F46P, G48A, V60T
# B12: 26H2L3 (antibody, V domains shown)
# VH: B1 VH with I64D, L109I, Y111W
# VL: B1 VL with Q23K, N32S, K54N, Q55L, R56H, V91A
# B13: MBS303-1 (CD3 arm) (antibody, V domains shown)
# VH: B1 VH
# VL: B1 VL
# What was measured:
# Test in all cases: SPR
# [1] = target: T1, monkey CD3 epsilon (cynomolgus monkey, UniProt Q95LI5)
# T1 chain: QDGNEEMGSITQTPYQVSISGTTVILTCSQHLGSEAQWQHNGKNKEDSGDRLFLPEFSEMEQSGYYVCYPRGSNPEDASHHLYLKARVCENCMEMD
# [2] = target: T2, human CD3 epsilon (human, UniProt P07766)
# T2 chain: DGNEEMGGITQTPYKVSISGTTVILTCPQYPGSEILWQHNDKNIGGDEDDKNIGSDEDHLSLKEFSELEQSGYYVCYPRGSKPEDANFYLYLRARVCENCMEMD
# [3] = target: T2, human CD3 epsilon
# [4] = target: T2, human CD3 epsilon
# [5] = target: T1, monkey CD3 epsilon
Binder,Kd [1],Kd [2],Kd [3],Kd [4],Kd [5]
B1,0.777 nM,0.104 nM,–,–,–
B2,0.616 nM,0.0967 nM,–,–,–
B3,–,–,5.6 nM,–,–
B4,–,–,–,0.00628 nM,0.00379 nM
B5,–,–,–,0.143 nM,0.232 nM
B6,–,–,–,0.222 nM,0.347 nM
B7,0.591 nM,0.205 nM,–,–,–
B8,0.192 nM,0.864 nM,–,–,–
B9,–,–,–,0.184 nM,0.237 nM
B10,–,–,1.79 nM,–,–
B11,5.84 nM,0.516 nM,–,–,–
B12,2.27 nM,3.95 nM,–,–,–
B13,–,–,1.99 nM,–,–
